{"source": "patent US20260193342A1", "about": "(ZOETIS SERVICES, published 2026)", "key": {"[1]": {"target": "T1, canine FcRn complex (FcRn-α subunit and β-microglobulin) (canine, UniProt A0A8I3PFR8 25-347, biotin on the BAP tag by BirA (Example 5 only))", "T1 sequence (A0A8I3PFR8 entry or part of it, one chain of several)": "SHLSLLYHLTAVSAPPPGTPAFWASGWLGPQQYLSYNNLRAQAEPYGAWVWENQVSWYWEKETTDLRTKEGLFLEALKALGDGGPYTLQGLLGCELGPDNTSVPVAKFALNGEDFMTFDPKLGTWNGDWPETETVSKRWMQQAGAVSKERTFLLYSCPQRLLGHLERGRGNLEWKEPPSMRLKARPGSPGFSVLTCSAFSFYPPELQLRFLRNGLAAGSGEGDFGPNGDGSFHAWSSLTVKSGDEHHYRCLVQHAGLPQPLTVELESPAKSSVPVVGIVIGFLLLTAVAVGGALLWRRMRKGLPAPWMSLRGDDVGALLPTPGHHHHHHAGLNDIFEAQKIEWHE", "assay": "SPR (Biacore), biotinylated FcRn on SA chip, IgG flowed, pH 6, 15 C"}, "[2]": {"target": "T1, canine FcRn complex (FcRn-α subunit and …)", "assay": "SPR (Biacore), biotinylated FcRn on SA chip, IgG flowed, pH 7.4, 15 C"}, "[3]": {"target": "T1, canine FcRn complex (FcRn-α subunit and …)", "assay": "SPR (Biacore), biotinylated FcRn on SA chip, IgG flowed, pH 7.4, 15 C", "remark": "listed apart in the source"}, "[4]": {"target": "T1, canine FcRn complex (FcRn-α subunit and …)", "assay": "SPR (Biacore), biotinylated FcRn on SA chip, IgG flowed, pH 6, 15 C", "remark": "listed apart in the source"}}, "data": [{"binder": "mAb1, caninized anti-IL31 antibody 34D03, canine IgGB, N434I (antibody, VH/VL: the caninized 34D03 entries of the listing; also called ID No. 12; copies: 2 + 2) heavy: EVQLVESGGDLVKPGGSLRLSCVASGFTFSNYGMSWVRQAPGKGLQWVATISYGGSYTYYPDNIKGRFTISRDNAKNTLYLQMNSLRAEDTAMYYCVRGYGYDTMDYWGQGTLVTVSSASTTAPSVFPLAPSCGSTSGSTVALACLVSGYFPEPVTVSWNSGSLTSGVHTFPSVLQSSGLYSLSSMVTVPSSRWPSETFTCNVAHPASKTKVDKPVPKRENGRVPRPPDCPKCPAPEMLGGPSVFIFPPKPKDTLLIARTPEVTCVVVDLDPEDPEVQISWFVDGKQMQTAKTQPREEQFNGTYRVVSVLPIGHQDWLKGKQFTCKVNNKALPSPIERTISKARGQAHQPSVYVLPPSREELSKNTVSLTCLIKDFFPPDIDVEWQSNGQQEPESKYRTTPPQLDEDGSYFLYSKLSVDKSRWQRGDTFICAVMHEALHIHYTQESLSHSPGK light: EIVMTQSPASLSLSQEEKVTITCKASQSVSFAGTGLMHWYQQKPGQAPKLLIYRASNLEAGVPSRFSGSGSGTDFSFTISSLEPEDVAVYYCQQSREYPWTFGQGTKLEIKRNDAQPAVYLFQPSPDQLHTGSASVVCLLNSFYPKDINVKWKVDGVIQDTGIQESVTEQDKDSTYSLSSTLTMSSTEYLSHELYSCEITHKSLPSTLIKSFQRSEC", "values": [{"measurement": "Kd", "setting": "[1]", "result": 77.1, "unit": "nM"}, {"measurement": "Kd", "setting": "[2]", "result": 19600, "unit": "nM"}]}, {"binder": "mAb2 of Table 4A, caninized anti-NGF antibody ZTS-841, canine IgGB, N434I (antibody, also called ID No. 50) heavy: EVQLVESGGDLVKPGGSLRLSCVASGFTFSSHGMHWVRQSPGKGLQWVAVINSGGSSTYYTDAVKGRFTISRDNAKNTVYLQMNSLRAEDTAMYYCAKESVGGWEQLVGPHFDYWGQGTLVIVSSASTTAPSVFPLAPSCGSTSGSTVALACLVSGYFPEPVTVSWNSGSLTSGVHTFPSVLQSSGLYSLSSMVTVPSSRWPSETFTCNVAHPASKTKVDKPVPKRENGRVPRPPDCPKCPAPEMLGGPSVFIFPPKPKDTLLIARTPEVTCVVVDLDPEDPEVQISWFVDGKQMQTAKTQPREEQFNGTYRVVSVLPIGHQDWLKGKQFTCKVNNKALPSPIERTISKARGQAHQPSVYVLPPSREELSKNTVSLTCLIKDFFPPDIDVEWQSNGQQEPESKYRTTPPQLDEDGSYFLYSKLSVDKSRWQRGDTFICAVMHEALHIHYTQESLSHSPGK VL: QSVLTQPTSVSGSLGQRVTISCSGSTNNIGILGASWYQLFPGKAPKLLVYGNGNRPSGVPDRFSGADSGDSVTLTITGLQAEDEADYYCQSFDTTLGAHVFGGGTHLTVL", "values": [{"measurement": "Kd", "setting": "[1]", "result": 2.76, "unit": "nM"}, {"measurement": "Kd", "setting": "[2]", "result": 22800, "unit": "nM"}]}, {"binder": "mAb1, caninized anti-IL31 antibody 34D03, canine IgGB, N434K (antibody, VH/VL: the caninized 34D03 entries of the listing; also called ID No. 13; copies: 2 + 2) heavy: EVQLVESGGDLVKPGGSLRLSCVASGFTFSNYGMSWVRQAPGKGLQWVATISYGGSYTYYPDNIKGRFTISRDNAKNTLYLQMNSLRAEDTAMYYCVRGYGYDTMDYWGQGTLVTVSSASTTAPSVFPLAPSCGSTSGSTVALACLVSGYFPEPVTVSWNSGSLTSGVHTFPSVLQSSGLYSLSSMVTVPSSRWPSETFTCNVAHPASKTKVDKPVPKRENGRVPRPPDCPKCPAPEMLGGPSVFIFPPKPKDTLLIARTPEVTCVVVDLDPEDPEVQISWFVDGKQMQTAKTQPREEQFNGTYRVVSVLPIGHQDWLKGKQFTCKVNNKALPSPIERTISKARGQAHQPSVYVLPPSREELSKNTVSLTCLIKDFFPPDIDVEWQSNGQQEPESKYRTTPPQLDEDGSYFLYSKLSVDKSRWQRGDTFICAVMHEALHKHYTQESLSHSPGK light: EIVMTQSPASLSLSQEEKVTITCKASQSVSFAGTGLMHWYQQKPGQAPKLLIYRASNLEAGVPSRFSGSGSGTDFSFTISSLEPEDVAVYYCQQSREYPWTFGQGTKLEIKRNDAQPAVYLFQPSPDQLHTGSASVVCLLNSFYPKDINVKWKVDGVIQDTGIQESVTEQDKDSTYSLSSTLTMSSTEYLSHELYSCEITHKSLPSTLIKSFQRSEC", "values": [{"measurement": "Kd", "setting": "[1]", "result": 9.11, "unit": "nM"}, {"measurement": "Kd", "setting": "[2]", "result": 7.86, "unit": "nM"}]}, {"binder": "mAb2 of Table 4A, caninized anti-NGF antibody ZTS-841, canine IgGB, N434K (antibody, also called ID No. 51) heavy: EVQLVESGGDLVKPGGSLRLSCVASGFTFSSHGMHWVRQSPGKGLQWVAVINSGGSSTYYTDAVKGRFTISRDNAKNTVYLQMNSLRAEDTAMYYCAKESVGGWEQLVGPHFDYWGQGTLVIVSSASTTAPSVFPLAPSCGSTSGSTVALACLVSGYFPEPVTVSWNSGSLTSGVHTFPSVLQSSGLYSLSSMVTVPSSRWPSETFTCNVAHPASKTKVDKPVPKRENGRVPRPPDCPKCPAPEMLGGPSVFIFPPKPKDTLLIARTPEVTCVVVDLDPEDPEVQISWFVDGKQMQTAKTQPREEQFNGTYRVVSVLPIGHQDWLKGKQFTCKVNNKALPSPIERTISKARGQAHQPSVYVLPPSREELSKNTVSLTCLIKDFFPPDIDVEWQSNGQQEPESKYRTTPPQLDEDGSYFLYSKLSVDKSRWQRGDTFICAVMHEALHKHYTQESLSHSPGK VL: QSVLTQPTSVSGSLGQRVTISCSGSTNNIGILGASWYQLFPGKAPKLLVYGNGNRPSGVPDRFSGADSGDSVTLTITGLQAEDEADYYCQSFDTTLGAHVFGGGTHLTVL", "values": [{"measurement": "Kd", "setting": "[1]", "result": 1.93, "unit": "nM"}, {"measurement": "Kd", "setting": "[2]", "result": 594, "unit": "nM"}]}, {"binder": "mAb1, caninized anti-IL31 antibody 34D03, canine IgGB, N434L (antibody, VH/VL: the caninized 34D03 entries of the listing; also called ID No. 14; copies: 2 + 2) heavy: EVQLVESGGDLVKPGGSLRLSCVASGFTFSNYGMSWVRQAPGKGLQWVATISYGGSYTYYPDNIKGRFTISRDNAKNTLYLQMNSLRAEDTAMYYCVRGYGYDTMDYWGQGTLVTVSSASTTAPSVFPLAPSCGSTSGSTVALACLVSGYFPEPVTVSWNSGSLTSGVHTFPSVLQSSGLYSLSSMVTVPSSRWPSETFTCNVAHPASKTKVDKPVPKRENGRVPRPPDCPKCPAPEMLGGPSVFIFPPKPKDTLLIARTPEVTCVVVDLDPEDPEVQISWFVDGKQMQTAKTQPREEQFNGTYRVVSVLPIGHQDWLKGKQFTCKVNNKALPSPIERTISKARGQAHQPSVYVLPPSREELSKNTVSLTCLIKDFFPPDIDVEWQSNGQQEPESKYRTTPPQLDEDGSYFLYSKLSVDKSRWQRGDTFICAVMHEALHLHYTQESLSHSPGK light: EIVMTQSPASLSLSQEEKVTITCKASQSVSFAGTGLMHWYQQKPGQAPKLLIYRASNLEAGVPSRFSGSGSGTDFSFTISSLEPEDVAVYYCQQSREYPWTFGQGTKLEIKRNDAQPAVYLFQPSPDQLHTGSASVVCLLNSFYPKDINVKWKVDGVIQDTGIQESVTEQDKDSTYSLSSTLTMSSTEYLSHELYSCEITHKSLPSTLIKSFQRSEC", "values": [{"measurement": "Kd", "setting": "[1]", "result": 14.3, "unit": "nM"}, {"measurement": "Kd", "setting": "[2]", "result": 997, "unit": "nM"}]}, {"binder": "mAb1, caninized anti-IL31 antibody 34D03, canine IgGB, N434M (antibody, VH/VL: the caninized 34D03 entries of the listing; also called ID No. 15; copies: 2 + 2) heavy: EVQLVESGGDLVKPGGSLRLSCVASGFTFSNYGMSWVRQAPGKGLQWVATISYGGSYTYYPDNIKGRFTISRDNAKNTLYLQMNSLRAEDTAMYYCVRGYGYDTMDYWGQGTLVTVSSASTTAPSVFPLAPSCGSTSGSTVALACLVSGYFPEPVTVSWNSGSLTSGVHTFPSVLQSSGLYSLSSMVTVPSSRWPSETFTCNVAHPASKTKVDKPVPKRENGRVPRPPDCPKCPAPEMLGGPSVFIFPPKPKDTLLIARTPEVTCVVVDLDPEDPEVQISWFVDGKQMQTAKTQPREEQFNGTYRVVSVLPIGHQDWLKGKQFTCKVNNKALPSPIERTISKARGQAHQPSVYVLPPSREELSKNTVSLTCLIKDFFPPDIDVEWQSNGQQEPESKYRTTPPQLDEDGSYFLYSKLSVDKSRWQRGDTFICAVMHEALHMHYTQESLSHSPGK light: EIVMTQSPASLSLSQEEKVTITCKASQSVSFAGTGLMHWYQQKPGQAPKLLIYRASNLEAGVPSRFSGSGSGTDFSFTISSLEPEDVAVYYCQQSREYPWTFGQGTKLEIKRNDAQPAVYLFQPSPDQLHTGSASVVCLLNSFYPKDINVKWKVDGVIQDTGIQESVTEQDKDSTYSLSSTLTMSSTEYLSHELYSCEITHKSLPSTLIKSFQRSEC", "values": [{"measurement": "Kd", "setting": "[3]", "result": 146000, "unit": "nM"}, {"measurement": "Kd", "setting": "[4]", "result": 14.2, "unit": "nM"}]}, {"binder": "mAb1, caninized anti-IL31 antibody 34D03, canine IgGB, N434Q (antibody, VH/VL: the caninized 34D03 entries of the listing; also called ID No. 16; copies: 2 + 2) heavy: EVQLVESGGDLVKPGGSLRLSCVASGFTFSNYGMSWVRQAPGKGLQWVATISYGGSYTYYPDNIKGRFTISRDNAKNTLYLQMNSLRAEDTAMYYCVRGYGYDTMDYWGQGTLVTVSSASTTAPSVFPLAPSCGSTSGSTVALACLVSGYFPEPVTVSWNSGSLTSGVHTFPSVLQSSGLYSLSSMVTVPSSRWPSETFTCNVAHPASKTKVDKPVPKRENGRVPRPPDCPKCPAPEMLGGPSVFIFPPKPKDTLLIARTPEVTCVVVDLDPEDPEVQISWFVDGKQMQTAKTQPREEQFNGTYRVVSVLPIGHQDWLKGKQFTCKVNNKALPSPIERTISKARGQAHQPSVYVLPPSREELSKNTVSLTCLIKDFFPPDIDVEWQSNGQQEPESKYRTTPPQLDEDGSYFLYSKLSVDKSRWQRGDTFICAVMHEALHQHYTQESLSHSPGK light: EIVMTQSPASLSLSQEEKVTITCKASQSVSFAGTGLMHWYQQKPGQAPKLLIYRASNLEAGVPSRFSGSGSGTDFSFTISSLEPEDVAVYYCQQSREYPWTFGQGTKLEIKRNDAQPAVYLFQPSPDQLHTGSASVVCLLNSFYPKDINVKWKVDGVIQDTGIQESVTEQDKDSTYSLSSTLTMSSTEYLSHELYSCEITHKSLPSTLIKSFQRSEC", "values": [{"measurement": "Kd", "setting": "[3]", "result": 21.8, "unit": "nM"}, {"measurement": "Kd", "setting": "[4]", "result": 5.91, "unit": "nM"}]}, {"binder": "mAb1, caninized anti-IL31 antibody 34D03, canine IgGB, N434R (antibody, VH/VL: the caninized 34D03 entries of the listing; also called ID No. 17; copies: 2 + 2) heavy: EVQLVESGGDLVKPGGSLRLSCVASGFTFSNYGMSWVRQAPGKGLQWVATISYGGSYTYYPDNIKGRFTISRDNAKNTLYLQMNSLRAEDTAMYYCVRGYGYDTMDYWGQGTLVTVSSASTTAPSVFPLAPSCGSTSGSTVALACLVSGYFPEPVTVSWNSGSLTSGVHTFPSVLQSSGLYSLSSMVTVPSSRWPSETFTCNVAHPASKTKVDKPVPKRENGRVPRPPDCPKCPAPEMLGGPSVFIFPPKPKDTLLIARTPEVTCVVVDLDPEDPEVQISWFVDGKQMQTAKTQPREEQFNGTYRVVSVLPIGHQDWLKGKQFTCKVNNKALPSPIERTISKARGQAHQPSVYVLPPSREELSKNTVSLTCLIKDFFPPDIDVEWQSNGQQEPESKYRTTPPQLDEDGSYFLYSKLSVDKSRWQRGDTFICAVMHEALHRHYTQESLSHSPGK light: EIVMTQSPASLSLSQEEKVTITCKASQSVSFAGTGLMHWYQQKPGQAPKLLIYRASNLEAGVPSRFSGSGSGTDFSFTISSLEPEDVAVYYCQQSREYPWTFGQGTKLEIKRNDAQPAVYLFQPSPDQLHTGSASVVCLLNSFYPKDINVKWKVDGVIQDTGIQESVTEQDKDSTYSLSSTLTMSSTEYLSHELYSCEITHKSLPSTLIKSFQRSEC", "values": [{"measurement": "Kd", "setting": "[3]", "result": 3.11, "unit": "nM"}, {"measurement": "Kd", "setting": "[4]", "result": 0.906, "unit": "nM"}]}]}
